assay: soluble on expression in E. coli; label from the status in PepcDB or PDB records

Row | Sequence | soluble on expression in E. coli
1 | MAANEGNQPIPPEEEKEISSLLESIKIGKTSLKYRCFYLYDDKMTDLTEEQKETLKKLKLYQKEYYDYESKFEYELFLLRQKYHDLYGPIYDKRREALVGNGEAKIGTPNLPEFWLRALRNNNTVSHVIEDHDEEILVYLNDIRCDYIKKNKEKKEGFILSFYFATNPFFSNSVLTKTYHMKCVDCDNEPVLLHTEATVIDWYDNKNILKKNVVKKQHNKNSREVKTVQQTVNRDSFFHFFTSHKVPNSNVIKQLSKHEVAQLEMIIEGDYEVALTIKERIIPYAVDYYLGIIIESESNSIVSDVDSSYSSSENNSNYNSYESNNSAYNDENSNVDTNEYDDNEEEEEGAKSNEDPLTS | soluble
2 | MTQPFNFEQALKDLQSGKSLTGKDSILGPLIKQLTEAALQAELEQHLAHDPQPNRKNGKTPKTIKHPSGNFELDAPRDRNGTFEPQLIKKNQTTLTDEIERKVLSMFSIGMSYRDINQHVEDMYGLNVSNATVSAITDKLIPELKAWQQRPLDSHYPIVWLDAIHYKVKEDGRYVSKAVYTLLALNMKGKKEILGLHLSENEGANYWLSVLADLNNRGVKDILIACVDGLTGFPEAIASIFPHTETQLCVIHQIRNSMKYVASKNQKAFMADLKPVYRAVSKEAAEMALDELEAKWGDAYPLVINSWRRKWHNLSHYFKYPEHIRKVIYTTNAVEAVHRQFRKLTKTKGAFPNENSLLKLLYAGILNASDKWTMPIHNWSLCLSQLAIYFEGRLDSVLEI | not soluble
3 | SYHPLLSSSAKASADGFKPLPAIELLDRASESPTTVEIAATTTSDSCSDGARSRFQRLKVVLDLDETLVCAYETSSLPAALRNQAIEAGLKWFELECLSTDKEYDGKPKINYVTVFERPGLHEFLEQLSEFADLILFTAGLEGYARPLVDRIDTRKVLTNRLYRPSTVSTQYRDHVKDLLSTSKNMCRTVIVDNNPFSFLLQPSNGIPCIAFSAGQPNDTQLLDVILPLLKQLSEEDDVRPTLYDRFRMPEWFEKQGIPPSCWKP | soluble
4 | MSLNLTIGTSKFNPPFEVWSGNNSSLYGFDIDLMQEICRRLHATCTFEAYIFDDLFPALKNREVDLVIASMIITDERKKHFIFSLPYMESNSQYITTVDSKISTFDDLHGKKIGVRKGTPYARQVLSENRNNQVIFYELIQDMLLGLSNNQVDASLMDYEAAKYWMASEPYAYKLIGKKYKLIGKKISIGEGYSIMANPDQFVLIKKINKILLEMEADGTYLRLYSEYFEGHHHHHH | soluble
5 | MASRKTVNRRQRPQRATSNVFAMFDQAQIQEFKEAFNMIDQNRDGFIDQEDLKDMFASLGKEVTEQFIDSMINEAPGAQPINFTMFLTLFGEKLTGTDPEEVIRNAFQCFDEDNSGKLNEEHLRELLTTMGERYSEEQVDELFRDAPIKGGQFDYVEFTRMLKHGTKDKDEA | not soluble
6 | GSMQRASRLKRELHMLATEPPPGITCWQDKDQMDDLRAQILGGANTPYEKGVFKLEVIIPERYPFEPPQIRFLTPIYHPNIDSAGRICLDVLKLPPKGAWRPSLNIATVLTSIQLLMSEPNPDDPLMADISSEFKYNKPAFLKNARQWTEKHARQKQKADEEEMLDNLP | soluble
7 | MTEDGVMKIDASTSTIKEPEPADCVILPTHTNEQVVYYKSWIAFGDNPNYLTYNRDLGYADWYGIVDCSDSPPTGPGVYKAFIYVNDLNYQESGNPLFKVTGRLKFLANKDTSDTMMKLEIFEQNRLEELRLSPKKMSDSQVIAIILFDNEETNSAICYSEQLESSIKVHLPVGSPAKAGQLILFTEYNYENDTYFPDPRPDAIEYRECEMTRIENGELLISAKAACSSIETHITYPQSVAFADTFGKVNVAAESMERGVTYRVELAINIIDSEANNVPLFKISDIGEKLTGEENEAFLRKLNDFEELQGTWEDWTPEEIAVELEPVAAAEEPADPEVEEAKIEENGVNDESLTQSESDSVFLPQIESSASSEETMSESNSAENSEKPKKTFGRMPQSLSESSSSTISSSKVGVDHSVIVLNVDNDECVGFETTQLKLMTICTAGVTVPLRPYGIFQFIAAGNNYGKTSIQTQSARVSECEGAVFSSDDVPKISANVIFSSNPKHKSYNKEVGVSDRYGFVEIPRITGDFEFGTVYSTQITMVQYGDPLKACFKAVAPLKRQFIDDLDHYLQVMGKYEDNIYQLSRKNGLGAKSISRLPNEPRNGSKHGSTKRFTTPHVTGLVVDMEKRGNYFGCVWTCFGDVVFKSTPTFSQNGGYPSVGDLVNIRVEILSPGTKDQKNLGASMTEKPASLSTTVIWRNNGFIVKAYLIMKPEKLIYSEDNNRFYEHDQLGIVVADSSIYGSDNEQSKVFEFERLRNPITLGFTTNLMNKCYWAARLPMIHREPSPPEPINKYNDENVYDDFQKGGPQSVNSYRSDRQYQEKPPMQYQSYHDPADTISIHSQDNHRPMETRSNAGTSVSSVDRKEVGVVMKKVDKNTQIVYLSGQKAAAIHHWNTHSQSTIVGNSYIFMYRPIEVHKATHYAPFEITQVVEILNTENHGRVDRSEFSSLFTFDLCNVDQRYVERLAFGEALVLRSNDVGHVVMASNVKTPLNPSMTAVEVCQTYKGKRESENLVGYCRLVYGKVPREIVDGHFSDQFVSAYYFELHEILATSNAYIVRNENLDRRNLRGNTIEEVRDDISIQKRIAHMNFGQNEQQQQQSSLSSRGPTRPYSPVGSYQSSHQNFDNRSAAHNGDGRSTSQSHHSAGGSMNHQNFYQPPVYQSSSSQQSYQPRYNGAPSGPLPPPSSQSSFNGAPAPPHYSEMSNDYNRMVRKLAELTDTAAQMIINNDIRQQIKNISPDLLDDLERNIDACQREKRHYYEKYGN | not soluble
8 | MATQTAVTATTVPQGSPSVTGSASQGGILNSARQFFSLAAPKVEKDKEFSFRFLTSPLRSKPAATVNADNFYMYACGSINMP | not soluble
9 | MSHHHHHHSMSKNILDMRNTVQIGIVVRDIEESLQNYAEFFGVEKPQWFWTDDYSKAHTKFNGRPTKARAKLAFFELGPLQLELIEPDENPSTWREFLDKNGEGIHHIAFVVKDMDRKVEELYRKGMKVIQKGDFEGGRYAYIDTLRALKVMIELLENY | soluble
10 | MGSDKIHHHHHHMVDVKRNIFLILDDRELTSEEVRSLVGTRRYSEISLKRRSLLEHLRAALPAWAQTRLVHIKDNNDVVALRNVLESCGEQSPALVIAGRAGFLQPERLTQLIERLPYAEEDFTDRLYRPLLVYLKSVHDLHSCWQQFEAEPLHLWPKAWQDCQRLESLEPLDLARIRDFLTFTGGATATRHFNEVLIDNYYYTKRSSDKQKMLAEYSFYGLAPESMRPWLIQPFEFREEGGGASYKMLRYFLADAALQWVHGAFDRDTFMAFIERLLFFIAERPRKACAREESAAVARDMFVTKVSARIEAFLAMEEGRRINALAASASPMLDVQAMLKRYLALYQRHERAFAFDYMVVGHGDPCFSNVLYDQQRYLLKLIDPKGAATEADLWTNPLYDLCKISHSVLGDYDFINNGLYRVGFTDANALKLAFSHRNHDDLKPIFSSLVGKMGMDYRIMRLGEASLFLSMLPLHIDYPNKILAFMLKAHEILREVEGEARV | not soluble
11 | GYITVGNENSTPIELYYEDQGSGQPVVLIHGYPLDGHSWERQTRELLAQGYRVITYDRRGFGGSSKVNTGYDYDTFAADLHTVLETLDLRDVVLVGFSMGTGELARYVARYGHERVAKLAFLASLEPFLVQRDDNPEGVPQEVFDGIEAAAKGDRFAWFTDFYKNFYNLDENLGSRISEQAVTGSWNVAIGSAPVAAYAVVPAWIEDFRSDVEAVRAAGKPTLILHGTKDNILPIDATARRFHQAVPEADYVEVEGAPHGLLWTHADEVNAALKTFLAK | soluble
12 | SLNDNFKKQPHHLIYEELLQQGITLGITTRGDGLSDYPKNAFNMARYIDDRPYNITQHQLQLAEEIAFDRKNWVFPIQTHENKVACITKDDIGTNIDTLTDALHGIDAMYTYDSNVLLTMCYADCVPVYFYSTKHHFIALAHAGWRGTYTEIVKEVLKHVNFDLKDLHVVIGPSTSSSYEINDDIKNKFETLPIDSANYIETRGRDRHGIDLKKANAALLIYYGVPKENIYTTAYATSEHLELFFSYRLEKGQTGRMLAFIGQQ | soluble
13 | SQLVECVPNFSEGKNQEVIDAISRAVAQTPGCVLLDVDSGPSTNRTVYTFVGRPEDVVEGALNAARAAYQLIDMSRHHGEHPRMGALDVCPFIPVRGVTMDECVRCAQAFGQRLAEELGVPVYLYGEAARTAGRQSLPALRAGEYEALPEKLKQAEWAPDFGPSAFVPSWGATVAGARKFLLAFNINLLSTREQAHRIALDLREQGRGKDQPGRLKKVQAIGWYLDEKNLAQVSTNLLDFEVTGLHTVFEETCREAQELSLPVVGSQLVGLVPLKALLDAAAFYCEKENLFLLQDEHRIRLVVNRLGLDSLAPFKPKERIIEYLV | soluble
14 | MPCSEETPAISPSKRARPAEVGGMQLRFARLSEHATAPTRGSARAAGYDLYSAYDYTIPPMEKAVVKTDIQIALPSGCYGRVAPRSGLAAKHFIDVGAGVIDEDYRGNVGVVLFNFGKEKFEVKKGDRIAQLICERIFYPEIEEVQALDDTERGSGGFGSTGKN | soluble
15 | MSTGKIQFAEQNGSFVLKFVGEVRLTLCSALDSTIEKIFAALNFSAIIIDLTETQSIDSTTLGLLAKLSILSRQKIGLLPTLVTTNPDITRLLQSMGFDQVFNIVDRPIPCPECLSDLPPQDQSEDVVRDKVLEAHRILMGLNESNREAFHDLVSALERH | not soluble
16 | MENFIDTLENWRDQKQIISVICKDGIKIDDSIITSFKASKDVGISNGLRIQLTFQEINFKAIVGQTDVSAATGRTSTTNDGGATSKKNTGNTTTSLGSPMLTCKELFSYSASELSDEALKARVTCSKSVSVKNGESTFTA | not soluble
17 | SANEAYPCPCDIGHRLEYGGLGREVQVEHIKAYVTKSPVDAGKAVIVIQDIFGWQLPNTRYIADMISGNGYTTIVPDFFVGQEPWDPSGDWSIFPEWLKTRNAQKIDREISAILKYLKQQCHAQKIGIVGFCWGGTAVHHLMMKYSEFRAGVSVYGIVKDSEDIYNLKNPTLFIFAENDVVIPLKDVSLLTQKLKEHCKVEYQIKTFSGQTHGFVHRKREDCSPADKPYIDEARRNLIEWLNKYM | soluble
18 | MPEIITPIITPFTKDNRIDKEKLKIHAENLIRKGIDKLFVNGTTGLGPSLSPEEKLENLKAVYDVTNKIIFQVGGLNLDDAIRLAKLSKDFDIVGIASYAPYYYPRMSEKHLVKYFKTLCEVSPHPVYLYNYPTATGKDIDAKVAKEIGCFTGVKDTIENIIHTLDYKRLNPNMLVYSGSDMLIATVASTGLDGNVAAGSNYLPEVTVTIKKLAMERKIDEALKLQFLHDEVIEASRIFGSLSSNYVLTKYFQGYDLGYPRPPIFPLDDEEERQLIKKVEGIRAKLVELKILKE | soluble
19 | MSLDLEYTPEQQQLRAEIRATLQTVMTPERVAAVSEQMDGGPAVRECVRALAAANLLGVGWPKEYGGRGFSAIEQFIFAEEARRVSAPIPLVTLNTAGPTLMHYGTDEQKRRFLPAILDGTVEFAIGYSEPGAGSDLASVHTTAVRVGDEYVINGQKMFTSGAAYADYIWLAVRTDPDAKKHKGISILIVPTSSPGFSWQPLHTMPGISTFYTFYDDVRVPVSALVGAENQGWQLITTQLNFERAALGNLGALEPLFDKTLDWALSTELDGGRVIDQPWVRSALARVEAQVAAYKLVNLRVNAAMTKGALNMGEASAAKVFGTELTQQVARELLEVLDGNGVRRGAEAPLRGALESAYRQAVINTFGGGANEIQRDIIAMAALGMPRAEGHHHHHH | not soluble
20 | MITQSSLLTYPLAGCLNRLANKSSQVKQRLQTHANETVCFRIDSLASLSVTITQDGHFTTAAKDTQAAVILDIAAELIPRIASGEMAAFDKIIICGDPELADTLLYMGKIFQAGIEENLSSVMGDVLARRATLTGQELVRWHLGSIRNLSRALGEFLSEEQPVTASRNRFHQLASEVESLQRRILRLEKRITALVPSFSSIAGNLPRTGR | not soluble
